Two molecules from publication PMC3944691, “Crystallization and preliminary X-ray diffraction analysis of the amidase domain of allophanate hydrolase from Pseudomonas sp. strain ADP” (Acta Crystallographica. Section F, Structural Biology …, 2014) can be followed below.

The target of series [1] is Allophanate hydrolase (AtzF) from Pseudomonas sp. strain ADP, His-tagged full-length (Pseudomonas sp. strain ADP). As to the kind of experiment: SEC; purified full-length AtzF on Superdex 200 prep-grade, 50 mM HEPES, 100 mM NaCl pH 7.5; oligomeric state from apparent size (~360 kDa).
Series [2] deals with the molecule itself. As to the kind of experiment: SEC; purified AtzF467 on Superdex 200 prep-grade, 50 mM Tris, 100 mM NaCl pH 7.5; oligomeric state from apparent size (~110 kDa); data not shown.

Consider “Allophanate hydrolase (AtzF) from Pseudomonas sp. strain ADP, His-tagged full-length (enzyme)”, for which the stoichiometry N in series [1] turned out to be 6.

B1: C-terminally truncated AtzF (AtzF467), first 467 amino acids of AtzF, N-terminally histidine-tagged (domain or fragment, Pseudomonas sp. strain ADP)
chain: MNDRAPHPERSGRVTPDHLTDLASYQAAYAAGTDAADVISDLYARIKEDGENPIWISLLPLESALAMLADAQQRKDKGEALPLFGIPFGVKDNIDVAGLPTTAGCTGFARTPRQHAFVVQRLVDAGAIPIGKTNLDQFATGLNGTRTPFGIPRCVFNENYVSGGSSSGSAVAVANGTVPFSLGTDTAGSGRIPAAFNNLVGLKPTKGLFSGSGLVPAARSLDCISVLAHTVDDALAVARVAAGYDADDAFSRKAGAAALTEKSWPRRFNFGVPAAEHRQFFGDAEAEALFNKAVRKLEEMGGTCISFDYTPFRQAAELLYAGPWVAERLAAIESLADEHPEVLHPVVRDIILSAKRMSAVDTFNGIYRLADLVRAAESTWEKIDVMLLPTAPTIYTVEDMLADPVRLNSNLGFYTNFVNLMDLSAIAVPAGFRTNGLPFGVTFIGRAFEDGAIASLGKAFVEHDLAK
notes: Allophanate hydrolase AtzF, Pseudomonas sp. strain ADP, first 467 amino acids (ends at Lys467), amidase domain; also called amidase domain of allophanate hydrolase; source: E. coli BL21 (λDE3), purified (Ni-NTA, Superdex 200 size exclusion); not shown: His6, N-terminal, kept
For B1, the “stoichiometry N” value in series [2] was determined as 2.
